Results: US12350286B2, “Polypeptides directed against viral infection and uses thereof” (QUADRUMIX BIOTECHNOLOGY INC., priority 2020, dated 2025)
“Also recorded” adds a separate entry of the source. Like-named read-outs stand apart in the source and are kept apart here.

Key:
[1] = test system: HBeAg; conditions: HepAD38 cells, 6-day time course
Protocol: In this Example 3, the effects of the presently designed polypeptides on HBV replication were analyzed, HepAD38 cells that expresses HBV under the control of a tetracycline promoter were used. HepAD38 cells were plated in the presence of TDF or candidate therapeutic (sdAb10-2) without tetracycline for three days to induce HBV production and to establish a cccDNA reservoir in the nuclei of infected cells. After three days, drugs/sdAbs were replenished and the media was replenished with tetracycline to suppress HBV transcripts being produced from the plasmid, so that only HBV markers be produced from the established cccDNA reservoir. Varying drug concentrations of—TDF and sdAb10-2 were used to determine drug toxicity (TD50) and efficacy during the 6-day time course.
The ability of the presently designed polypeptides to reduce HBeAg levels was also analyzed.

[2] = test system: HBV; assay: supernatant HBV DNA in HepAD38 cells; assay type: cell-based; conditions: 6-day time course
Source text: Having regard to FIG. 12, TDF targets the HBV reverse transcriptase, thus only affecting the number virions secreted in the supernatant. In contrast, the presently designed polypeptides should affect cccDNA stability, which can be indirectly measured through levels. As expected, a significant decrease in supernatant HBV (2 log) was caused by TDF treatment. A significant, albeit lower, decrease in HBV supernatant DNA was also observed from sdAb10-2 treatment (0.5 log).

[3] = test system: wild-type G-quadruplex of HBV cccDNA pre-core promoter region; assay: phage ELISA assay (absorbance at 450 nm), wild-type vs mutant G-quadruplex; assay type: binding; conditions: for affinity for wild-type G-quadruplex structure of HBV cccDNA compared to mutant G-quadruplex structure: phage ELISA, WT vs MUT (G1748A)
Source text: According to embodiments, methods of developing and designing the present at least one novel polypeptide comprising at least one antiviral sdAb are provided. In some embodiments, the methods comprise accessing a fully synthetic phage-display library that codes for 3-billion sdAbs clones, enabling efficient selection of in vitro humanized antibodies against virtually any antigen. Advantageously, no animals or immunization are required, allowing the selection of sdAbs that can target unprocessed G-quadruplex, thereby overcoming conventional techniques of injecting animals to raise antibodies (such techniques known to alter antigen structures).
Having regard to FIG. 4B and Table 1 herein, the at least nine polypeptides having at least one sdAb are referred to as sdAbs 1, 4, 5, 6, 7, 8, 9, 10, and 11 and comprise an amino acid sequence represented as SEQ ID NOs: 9, 10, 11, 12, 13, 14, 15, 16, and 17, respectively.

[4] = test system: NTCP-HUH7 cells; assay: localization and entry into target cells (staining, microscopy); assay type: cell-based
Source text: The foregoing one or more modifications of the at least one polypeptide sdAb10 result in antiviral efficacy. […] Alternatively, the second and third rows shown in FIG. 7 provide that both polypeptides modified to include a cell penetrating peptide coding sequence entered the target cells (i.e. the nuclei and cytoplasm being visualized Hoescht stain and by fluorescently labelled anti-vinculin antibodies, respectively).

[5] = test system: HBV cccDNA; assay: pulldown assay with Hirt-extracted cccDNA from explanted HBV infected liver; assay type: binding; conditions: for interaction with cccDNA: pulldown, cccDNA from explanted HBV infected liver; for replicates that picked up cccDNA: three replicates, nested PCR detection
Protocol: In this Example 1, binding studies for at least one of the presently designed polypeptides having at least one sdAb with HBV pre-core G-quadruplex were performed using patient derived samples. For example, two of the presently developed sdAbs, namely sdAb #8 (NB01) and sdAb #1 (NB07), were produced via E. coli expression system and purified via nickel bead affinity chromatography, then size exclusion chromatography (as described in more detail herein). Pulldown assays using Hirt-extracted cccDNA from explanted liver tissue (i.e. liver transplanted secondary to HCC from HBV) were performed.
Having regard to FIG. 8B, results are provided from the pulldown study using sdAbs-bound to magnetic nickel beads with Hirt-extracted, T5 exonuclease-digested cccDNA from an explanted HBV infected liver. Beads were incubated with the corresponding sdAbs comprising, in this Example, the presently developed sdAb8 and sdAb1, washed, and incubated with cccDNA. Excess cccDNA was removed (“xsDNA” lanes), followed by 4 washing steps (“4th Wash” lanes). The sdAbs were eluted and cccDNA was detected through nested PCR (“Elution” lanes). The first lane is the DNA marker highlighting the 150 bp fragment and the next two lanes represent the “sdAb only” elutions (sdAb8 and sdAb1). Subsequent sets of 3 represent the excess cccDNA (“xs”), last washes (“W”) and elutions (“E”) from the corresponding tubes. The last three lanes represent the PCR controls, with negatives from the direct (D) and nested (N) rounds.

[6] = test system: HBV pre-core G-quadruplex; assay: MST binding study with HBV pre-core G-quadruplex
Protocol: In this Example, binding studies for at least one of the presently designed polypeptides having at least one sdAb (e.g. sdAb10M and sdAb1) with HBV pre-core G-quadruplex were performed.

[7] = test system: HBV surface antigen (HBsAg); assay: HBsAg levels following exposure to the polypeptide; conditions: increased concentration from 50 μg/mL to 100 μg/mL
Protocol: Having regard to FIG. 5A, expression methods using a bacterial expression system (SDS-PAGE) yielded ˜3 mg of pure sdAbs from 1 L bacterial culture, where lane 1 represents the standard molecular weight marker and elution fractions are shown in lanes 2-6, indicating the presence of at least one polypeptides having at least one sdAb (between 18.4 kDa and 14.4 kDa markers). […] The foregoing confirms that the at least one polypeptide comprise at least one antiviral sdAb.

CC(C)OC(=O)OCOP(=O)(CO[C@H](C)Cn1cnc2c(N)ncnc21)OCOC(=O)OC(C)C.O=C(O)/C=C/C(=O)O [TDF, Tenofovir Disoproxil Fumurate, reference compound]
HBeAg levels [1]: did not significantly decrease
decrease in supernatant HBV DNA [2]: 2 log

B1: sdAb 6: single domain antibody, amino acid sequence SEQ ID NO: 12 (protein)
VHH: MAEVQLQASGGGFVQPGGSLRLSCAASGTGFRHTAMGWFRQAPGKEREFVSAISGHASKQAYYADSVKGRFTISRDNSKNTVYLQMNSLRAEDTATYYCAFRRAEKIYGHPMAPQKLWYWGQGTQVTVSS
modifications: Single-Domain Antibody 6
affinity for wild-type G-quadruplex structure of HBV cccDNA compared to mutant G-quadruplex structure [3]: higher affinity for the wild-type G-quadruplex structure

B2: sdAb10-1: sdAb10 modified with CPP, NTCP-recognition and NLS sequences; full sequence SEQ ID NO: 19 (protein)
VHH: GRKKRRQRRRPPQGGGGSMAEVQLQASGGGFVQPGGSLRLSCAASGRTSKITSMGWFRQAPGKEREFVSAISWSNGLTNYYADSVKGRFTISRDNSKNTVYLQMNSLRAEDTATYYCASKIHTKPKWYWGQGTQVTVSSGGGGSNPLGFFPGGGGSDHQLDGGGGSPKKKRKVSSFLRNHHHHHH
modifications: Single-Domain Antibody 10-01
entry into target cells [4]: enter the cell; also recorded: localize and enter the target hepatocyte cells

B3: sdAb 5: single domain antibody, amino acid sequence SEQ ID NO: 11 (protein)
VHH: MAEVQLQASGGGFVZPGGSLRLSCAASGRTSYHTNMGWFRQAPGKEREFVSAISSSPNAATYYADSVKGRFTISRDNSKNTVYLQMNSLRAEDTATYYCARTKYGRVMGHMWYWGQGTQVTVSS
modifications: Single-Domain Antibody 5
affinity for wild-type G-quadruplex structure of HBV cccDNA compared to mutant G-quadruplex structure [3]: higher affinity for the wild-type G-quadruplex structure

B4: sdAb 7: single domain antibody, amino acid sequence SEQ ID NO: 13 (protein)
VHH: MAEVQLQASGGGFVQPGGSLRLSCAASGRTYRGETMGWFRQAPGKEREFVSAISWGWSNRAYYADSVKGRFTISRDNSKNTVYLQMNSLRAEDTATYYCASRHMRRAPWSGPGMSYWGQGTQVTVSS
modifications: Single-Domain Antibody 7
affinity for wild-type G-quadruplex structure of HBV cccDNA compared to mutant G-quadruplex structure [3]: higher affinity for the wild-type G-quadruplex structure

B5: sdAb8: single domain antibody, amino acid sequence SEQ ID NO: 14 (protein)
VHH: MAEVQLQASGGGFVQPGGSLRLSCAASGTTSGQTAMGWFRQAPGKEREFVSAISGHHTPRAYYADSVKGRFTISRDNSKNTVYLQMNSLRAEDTATYYCAWIRRKPQSWYWGQGTQVTVSS
modifications: Single-Domain Antibody 8
affinity for wild-type G-quadruplex structure of HBV cccDNA compared to mutant G-quadruplex structure [3]: higher affinity for the wild-type G-quadruplex structure
interaction with cccDNA [5]: interacts with HBV cccDNA
replicates that picked up cccDNA [5]: two of the three replicates
entry into target cells ([4]; listed as sdAb08): do not enter the cells; also recorded: failed to enter target cells

B6: sdAb1: single domain antibody, amino acid sequence SEQ ID NO: 9; used as negative control (poor binder) (protein)
VHH: MAEVQLQASGGGFVQPGGSLRLSCAASGRTYRHSGMGWFRQAPGKEREFVSAISDDHNMESYYADSVKGRFTISRDNSKNTVYLQMNSLRAEDTATYYCAMTKWHGPGGPHWYWGQGTQVTVSS
modifications: Single-Domain Antibody 1
interaction with HBV pre-core G-quadruplex [6]: did not interact with HBV pre-core G-quadruplex
interaction with pre-core G-quadruplex of cccDNA ([3]; FIG. 4): only weakly interacted with the G-quadruplex
affinity for wild-type G-quadruplex structure of HBV cccDNA compared to mutant G-quadruplex structure [3]: higher affinity for the wild-type G-quadruplex structure
interaction with cccDNA [5]: did not interact with cccDNA
replicates that picked up cccDNA [5]: none of the replicates

B7: sdAb10-2: sdAb10 modified with CPP, NTCP-recognition and NLS sequences; full sequence SEQ ID NO: 20 (protein)
VHH: MAEVQLQASGGGFVQPGGSLRLSCAASGRTSKITSMGWFRQAPGKEREFVSAISWSNGLTNYYADSVKGRFTISRDNSKNTVYLQMNSLRAEDTATYYCASKIHTKPKWYWGQGTQVTVSSGGGGSGRKKRRQRRRPPQGGGGSNPLGFFPGGGGSDHQLDGGGGSPKKKRKVSSFLRNHHHHHH
modifications: Single-Domain Antibody 10-02
HBeAg levels [1]: significantly decreased
decrease in supernatant HBV DNA [2]: 0.5 log
entry into target cells [4]: enter the cell; also recorded: localize and enter the target hepatocyte cells

B8: sdAb10: single domain antibody, amino acid sequence SEQ ID NO: 16 (protein)
VHH: MAEVQLQASGGGFVQPGGSLRLSCAASGRTSKITSMGWFRQAPGKEREFVSAISWSNGLTNYYADSVKGRFTISRDNSKNTVYLQMNSLRAEDTATYYCASKIHTKPKWYWGQGTQVTVSS
modifications: Single-Domain Antibody 10
affinity for wild-type G-quadruplex structure of HBV cccDNA compared to mutant G-quadruplex structure [3]: higher affinity for the wild-type G-quadruplex structure
HBsAg levels [7]: dose-dependent decrease in HBsAg levels

B9: sdAb 4: single domain antibody, amino acid sequence SEQ ID NO: 10 (protein)
VHH: MAEVQLQASGGGFVZPGGSLRLSCAASGRTSKWYSMGWFRQAPGKEREFVSAISYRQNIRAYYADSVKGRFTISRDNSKNTVYLQMNSLRAEDTATYYCAATHSYLFKFPTHFPQPQDYWGQGTQVTVSS
modifications: Single-Domain Antibody 4
affinity for wild-type G-quadruplex structure of HBV cccDNA compared to mutant G-quadruplex structure [3]: higher affinity for the wild-type G-quadruplex structure

B10: sdAb 9: single domain antibody, amino acid sequence SEQ ID NO: 15 (protein)
VHH: MAEVQLQASGGGFVQPGGSLRLSCAASGRTSGHYSMGWFRQAPGKEREFVSAISGRGNSLSYYADSVKGRFTISRDNSKNTVYLQMNSLRAEDTATYYCAWWHRDSHPQSGKHMRYWGQGTQVTVSS
modifications: Single-Domain Antibody 9
affinity for wild-type G-quadruplex structure of HBV cccDNA compared to mutant G-quadruplex structure [3]: higher affinity for the wild-type G-quadruplex structure

B11: sdAb 11: single domain antibody, amino acid sequence SEQ ID NO: 17 (protein)
VHH: MAEVQLQASGGGFVQPGGSLRLSCAASGFTSESTSMGWFRQAPGKEREFVSAISRWESTEEYYADSVKGRFTISRDNSKNTVYLQMNSLRAEDTATYYCAYRMHWGGRWRWNYWGQGTQVTVSS
modifications: Single-Domain Antibody 11
affinity for wild-type G-quadruplex structure of HBV cccDNA compared to mutant G-quadruplex structure [3]: higher affinity for the wild-type G-quadruplex structure
